Test results as given in patent publication US20240209086A1 (PETMEDIX, published 2024).

T1: canine CD20 on cells (HEK293, MDCK II, CLBL-1 or native B cells) (canine, UniProt Q3C2E2 1-297)
T1 construct: also called dCD20; cCD20
T1 chain: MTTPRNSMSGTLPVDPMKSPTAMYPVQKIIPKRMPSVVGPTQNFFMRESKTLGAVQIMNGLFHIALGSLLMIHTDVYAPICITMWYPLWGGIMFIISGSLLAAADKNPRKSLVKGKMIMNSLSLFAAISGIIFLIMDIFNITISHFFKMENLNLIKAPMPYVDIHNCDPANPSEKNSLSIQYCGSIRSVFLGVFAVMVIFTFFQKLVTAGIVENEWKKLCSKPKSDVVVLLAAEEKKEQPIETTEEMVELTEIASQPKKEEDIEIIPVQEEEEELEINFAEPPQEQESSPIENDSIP


Assays:
[1] = biological target: T1, canine CD20 on cells (HEK293, MDCK II, …); assay: flow cytometry, canine CD20 HEK293 cells, 10 µg/ml, FITC anti-canine IgG
Description: A CD20 binding screen was performed on candidate proteins produced from the canine CD20 immunisation as described in Examples 2 and 3. CHO cells supernatants containing candidate antibodies were diluted to 10 μg/ml in FACS buffer (PBS containing 3% FBS) and screened for their ability to bind canine CD20 expressed on cell surface. In brief, 1-2×10⁵ canine CD20-expressing HEK cells were incubated with candidate mAbs for one hour at 4° C., at a fixed concentration of 10 μg/ml followed by incubation with 5 μg/ml of FITC-conjugated anti-canine IgG secondary antibody (Bethyl Laboratories) for 1 hour at 4° C. Cells incubated with anti-canine IgG FITC secondary antibody and without primary anti-canine CD20 antibody, or with isotype control primary antibody, were used as negative controls. The data were acquired on either a Beckman Coulter CytoFLEX or a BD Accuri C6 Plus flow cytometer and analysed using FlowJo software.

[2] = biological target: canine CD3 on canine T cells (canine PBMC) (canine, UniProt P27597 22-202); assay: cell-based or functional assay
Sequence of canine CD3 on canine T cells (canine PBMC) (P27597 22-202 limits assumed, chain 1 of 3): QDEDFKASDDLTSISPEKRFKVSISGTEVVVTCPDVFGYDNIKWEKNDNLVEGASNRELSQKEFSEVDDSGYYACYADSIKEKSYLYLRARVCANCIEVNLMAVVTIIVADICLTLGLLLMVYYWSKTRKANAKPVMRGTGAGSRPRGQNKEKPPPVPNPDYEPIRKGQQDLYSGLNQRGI
Sequence of canine CD3 on canine T cells (canine PBMC) (chain, as listed by the source limits assumed, chain 2 of 3): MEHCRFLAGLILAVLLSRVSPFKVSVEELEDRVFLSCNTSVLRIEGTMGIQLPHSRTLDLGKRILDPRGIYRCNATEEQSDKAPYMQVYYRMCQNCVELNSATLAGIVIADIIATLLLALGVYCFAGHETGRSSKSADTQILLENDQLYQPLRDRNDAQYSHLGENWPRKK
Sequence of canine CD3 on canine T cells (canine PBMC) (chain, as listed by the source limits assumed, chain 3 of 3): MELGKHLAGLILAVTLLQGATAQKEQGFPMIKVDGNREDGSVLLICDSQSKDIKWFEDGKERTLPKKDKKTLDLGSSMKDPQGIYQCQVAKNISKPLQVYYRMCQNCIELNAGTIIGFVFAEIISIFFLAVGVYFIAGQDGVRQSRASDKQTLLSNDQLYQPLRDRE

[3] = biological target: T2, canine CD3εδ-Fc (heterodimer of canine CD3ε-hIgG4PE-knob and canine CD3δ-hIgG4PE-hole) (canine); assay: SPR (Biacore 8K), CD3εδ-Fc amine-coupled to CM5 chip, multi-cycle kinetics, antibody 600-7.4 nM
T2 construct: also called CD3εδ-Fc fusion protein; copies: 1 + 1
T2 sequence (chain, as listed by the source mutant limits assumed): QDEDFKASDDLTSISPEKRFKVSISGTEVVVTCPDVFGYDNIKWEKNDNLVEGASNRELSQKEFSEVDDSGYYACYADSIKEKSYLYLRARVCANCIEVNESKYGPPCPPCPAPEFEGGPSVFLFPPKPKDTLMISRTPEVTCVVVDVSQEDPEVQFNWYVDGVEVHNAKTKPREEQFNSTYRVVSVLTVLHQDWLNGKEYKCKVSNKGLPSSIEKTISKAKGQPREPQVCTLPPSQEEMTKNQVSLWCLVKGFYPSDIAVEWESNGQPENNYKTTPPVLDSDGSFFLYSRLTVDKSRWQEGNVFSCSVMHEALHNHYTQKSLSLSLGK
Description: Binding affinity of shortlisted candidates, described in Example 3, were assessed using Biacore 8K (Cytiva). Briefly, a CM5 Sensor Chip (Cytiva) was docked onto a Biacore 8K, equilibrated for 30′ at RT and then Running Buffer (10 mM HEPES pH6 150 mM NaCl 3 mM EDTA and 0.005% Tween20) was applied to the SPR chip surface. Canine CD3εδ-Fc was diluted into 10 mM acetate buffer pH4.5 and immobilised using standard amine coupling reaction. Antibodies dilutions were prepared by diluting the shortlisted candidates from 600 nM to 7.4 nM (5 concentrations with 1:3 dilutions) in running buffer and kinetics was assessed using multi-cycle kinetics method (120 sec association-300 sec dissociation). Kinetics and/or Affinity quantification was performed using Biacore Insight following standard analyses methods.

Row | binding result [1] | Kd [3] | Binder | EC50 (M) of killing potency, bispecific killing of hCD20+GFP MDCK II cells by canine PBMC [2]
1 | binds | – | PMX271 (monospecific anti-canine CD20, canine IgG-B, lambda C5) (antibody, V domains shown) VH: AVQLVESGGDLVKPGGSLRLSCVASGITFSRYHMSWVRQAPGKGLQWVAYINSGGSATSYTDAVKGRFSISRDNGKNTLYLQMNSLRVEDSAVYYCTTLDLWGQGTLVTVSS VL: SYVLTQLPSKNVTLKQPAHITCGGDNIGSKSVHWYQQKLGQAPVLIIYYDSRRPTGIPERFSGANSGNTATLTINGALAEDEADYYCQMWDSSANVFGGGTHLTVLG | –
2 | – | 447 nM | PMX172 in bispecific format (canine CD3 arm PMX172 x Rituximab arm, human IgG4PE knob-in-hole) (bispecific antibody) heavy 1: EVQLVESGGDLVKPGGSLRLSCVASGFTFSSYHMSWVRQAPGKGLQWVAYSNSGGSRTSYADAVKGRFTISRDNAKNTLYLQMNSLRAEDTAVYYCASEGGGGRYGYKDYGMDYWGHGTSLFVSSASTKGPSVFPLAPCSRSTSESTAALGCLVKDYFPEPVTVSWNSGALTSGVHTFPAVLQSSGLYSLSSVVTVPSSSLGTKTYTCNVDHKPSNTKVDKRVESKYGPPCPPCPAPEFEGGPSVFLFPPKPKDTLMISRTPEVTCVVVDVSQEDPEVQFNWYVDGVEVHNAKTKPREEQFNSTYRVVSVLTVLHQDWLNGKEYKCKVSNKGLPSSIEKTISKAKGQPREPQVYTLPPSQCEMTKNQVSLSCAVKGFYPSDIAVEWESNGQPENNYKTTPPVLDSDGSFFLVSRLTVDKSRWQEGNVFSCSVMHEALHNRFTQKSLSLSLGK light 1: SYVLTQLPSKNVTLKQPAHITCGGDNIGSKSVHWYQQKLGQAPVLIIYYDSSRPTGIPERFSGANSGNTATLTISGALAEDEADYYCQVWDSSAKAWVFGEGTQLTVLRTVAAPSVFIFPPSDEQLKSGTASVVCLLNNFYPREAKVQWKVDNALQSGNSQESVTEQDSKDSTYSLSSTLTLSKADYEKHKVYACEVTHQGLSSPVTKSFNRGEC heavy 2: not shown light 2: QIVLSQSPAILSASPGEKVTMTCRASSSVSYIHWFQQKPGSSPKPWIYATSNLASGVPVRFSGSGSGTSYSLTISRVEAEDAATYYCQQWTSNPPTFGGGTKLEIKRTVAAPSVFIFPPSDEQLKSGTASVVCLLNNFYPREAKVQWKVDNALQSGNSQESVTEQDSKDSTYSLSSTLTLSKADYEKHKVYACEVTHQGLSSPVTKSFNRGEC | 4.66e-09 M
3 | – | 854 nM | PMX169 in bispecific format (canine CD3 arm PMX169 x Rituximab arm, human IgG4PE knob-in-hole) (bispecific antibody) heavy 1: EVQVVESGGDLVKPGGSLRLSCVTSGFAFNNYHMSWVRQAPGKGLQWVAYINSGGSRISYADAVKGRFTISRDNAKNTLYLQMNSLRAEDTAVYYCASEGGGEIYGFKDYGMDYWGHGTSLFVSSASTKGPSVFPLAPCSRSTSESTAALGCLVKDYFPEPVTVSWNSGALTSGVHTFPAVLQSSGLYSLSSVVTVPSSSLGTKTYTCNVDHKPSNTKVDKRVESKYGPPCPPCPAPEFEGGPSVFLFPPKPKDTLMISRTPEVTCVVVDVSQEDPEVQFNWYVDGVEVHNAKTKPREEQFNSTYRVVSVLTVLHQDWLNGKEYKCKVSNKGLPSSIEKTISKAKGQPREPQVYTLPPSQCEMTKNQVSLSCAVKGFYPSDIAVEWESNGQPENNYKTTPPVLDSDGSFFLVSRLTVDKSRWQEGNVFSCSVMHEALHNRFTQKSLSLSLGK light 1: SYVLTQLPSKNVTLKQPAHITCGGDNIGSKSVHWYQQKLGQAPVLIIYYDSSRPTGIPERFSGANSGNTATLTISGALAEDEADYYCQVWDSSAKAWVFGEGTQLTVLRTVAAPSVFIFPPSDEQLKSGTASVVCLLNNFYPREAKVQWKVDNALQSGNSQESVTEQDSKDSTYSLSSTLTLSKADYEKHKVYACEVTHQGLSSPVTKSFNRGEC heavy 2: not shown light 2: QIVLSQSPAILSASPGEKVTMTCRASSSVSYIHWFQQKPGSSPKPWIYATSNLASGVPVRFSGSGSGTSYSLTISRVEAEDAATYYCQQWTSNPPTFGGGTKLEIKRTVAAPSVFIFPPSDEQLKSGTASVVCLLNNFYPREAKVQWKVDNALQSGNSQESVTEQDSKDSTYSLSSTLTLSKADYEKHKVYACEVTHQGLSSPVTKSFNRGEC | 1.4e-08 M
